The values that follow come from PMC4703952, “Probing Intersubunit Interfaces in AMPA-subtype Ionotropic Glutamate Receptors” (Scientific Reports, 2016).

Experiment in all cases: SEC; FSEC of ~10% of the protein dialysed into non-reducing buffers with the various ligands; 150 mM NaCl, 20 mM Tris-HCl pH 8.0, 1 mM C12M, lipid
(In gel filtration, larger molecules generally elute earlier.)

Series [1] concerns the target GluA2_(C589A-Thr) I211C (rat).
Series [2] addresses GluA2_(C589A-Thr) G212C (rat).
Series [3] deals with GluA2_(C589A-Thr) V215C (rat).
Series [4] addresses GluA2_(C589A-Thr) I209C (rat).
Series [5] deals with the molecule itself.

Consider GluA2_(C589A-Thr) I211C (receptor), for which, in series [1], the stoichiometry N (commonly the number of molecules, sites or subunits per partner or assembly) amounted to 4.
GluA2_(C589A-Thr) G212C (receptor) returned a stoichiometry N in series [2] of 4.
In turn, GluA2_(C589A-Thr) V215C (receptor) had a stoichiometry N in series [3] of 4.
GluA2_(C589A-Thr) I209C (receptor) showed a stoichiometry N in series [4] of 4.

B1: GluA2_(C589A-Thr) K663C (receptor, rat)
chain: VSSNSIQIGGLFPRGADQEYSAFRVGMVQFSTSEFRLTPHIDNLEVANSFAVTNAFCSQFSRGVYAIFGFYDKKSVNTITSFCGTLHVSFITPSFPTDGTHPFVIQMRPDLKGALLSLIEYYQWDKFAYLYDSDRGLSTLQAVLDSAAEKKWQVTAINVGNINNDKKDETYRSLFQDLELKKERRVILDCERDKVNDIVDQVITIGKHVKGYHYIIANLGFTDGDLLKIQFGGANVSGFQIVDYDDSLVSKFIERWSTLEEKEYPGAHTATIKYTSALTYDAVQVMTEAFRNLRKQRIEISRRGNAGDCLANPAVPWGQGVEIERALKQVQVEGLSGNIKFDQNGKRINYTINIMELKTNGPRKIGYWSEVDKMVVTLTELPSGNDTSGLENKTVVVTTILESPYVMMKKNHEMLEGNERYEGYCVDLAAEIAKHCGFKYKLTIVGDGKYGARDADTKIWNGMVGELVYGKADIAIAPLTITLVREEVIDFSKPFMSLGISIMIKKPQKSKPGVFSFLDPLAYEIWMCIVFAYIGVSVVLFLVSRFSPYEWHTEEFEDGRETQSSESTNEFGIFNSLWFSLGAFMQQGADISPRSLSGRIVGGVWWFFTLIIISSYTANLAAFLTVERMVSPIESAEDLSKQTEIAYGTLDSGSTKEFFRRSCIAVFDKMWTYMRSAEPSVFVRTTAEGVARVRKSKGKYAYLLESTMNEYIEQRKPCDTMKVGGNLDSKGYGIATPKGSSLGTPVNLAVLKLSEQGVLDKLKNKWWYDKGECGAKDSGSKEKTSALSLSNVAGVFYILVGGLGLAMLVALIEFCYKSRAEAKRMKVAKNPQNINPSSSQNSQNFATYKEGYNVYGIESVKIGLVPR
notes: signal peptide in the construct; AMPA receptor subunit GluA2, flip form (GluA2i), rat, NP_058957, full length including the native signal peptide; extra residues left from the thrombin cleavage site at the distal C-terminus after digestion; Single cysteine substitution in m1, LBD dimer-dimer interface; source: HEK293 GnTI- cells, baculovirus-transduced (BacMam), purified (streptactin resin, …)
In the case of B1, the “stoichiometry N” value in series [5] worked out at 4.

B2: GluA2_(C589A-Thr) A665C (receptor, rat)
chain: VSSNSIQIGGLFPRGADQEYSAFRVGMVQFSTSEFRLTPHIDNLEVANSFAVTNAFCSQFSRGVYAIFGFYDKKSVNTITSFCGTLHVSFITPSFPTDGTHPFVIQMRPDLKGALLSLIEYYQWDKFAYLYDSDRGLSTLQAVLDSAAEKKWQVTAINVGNINNDKKDETYRSLFQDLELKKERRVILDCERDKVNDIVDQVITIGKHVKGYHYIIANLGFTDGDLLKIQFGGANVSGFQIVDYDDSLVSKFIERWSTLEEKEYPGAHTATIKYTSALTYDAVQVMTEAFRNLRKQRIEISRRGNAGDCLANPAVPWGQGVEIERALKQVQVEGLSGNIKFDQNGKRINYTINIMELKTNGPRKIGYWSEVDKMVVTLTELPSGNDTSGLENKTVVVTTILESPYVMMKKNHEMLEGNERYEGYCVDLAAEIAKHCGFKYKLTIVGDGKYGARDADTKIWNGMVGELVYGKADIAIAPLTITLVREEVIDFSKPFMSLGISIMIKKPQKSKPGVFSFLDPLAYEIWMCIVFAYIGVSVVLFLVSRFSPYEWHTEEFEDGRETQSSESTNEFGIFNSLWFSLGAFMQQGADISPRSLSGRIVGGVWWFFTLIIISSYTANLAAFLTVERMVSPIESAEDLSKQTEIAYGTLDSGSTKEFFRRSKICVFDKMWTYMRSAEPSVFVRTTAEGVARVRKSKGKYAYLLESTMNEYIEQRKPCDTMKVGGNLDSKGYGIATPKGSSLGTPVNLAVLKLSEQGVLDKLKNKWWYDKGECGAKDSGSKEKTSALSLSNVAGVFYILVGGLGLAMLVALIEFCYKSRAEAKRMKVAKNPQNINPSSSQNSQNFATYKEGYNVYGIESVKIGLVPR
notes: as for B1
For B2, in series [5], the “stoichiometry N” value was determined as 4.

B3: GluA2_(C589A-Thr) (receptor, rat)
chain: VSSNSIQIGGLFPRGADQEYSAFRVGMVQFSTSEFRLTPHIDNLEVANSFAVTNAFCSQFSRGVYAIFGFYDKKSVNTITSFCGTLHVSFITPSFPTDGTHPFVIQMRPDLKGALLSLIEYYQWDKFAYLYDSDRGLSTLQAVLDSAAEKKWQVTAINVGNINNDKKDETYRSLFQDLELKKERRVILDCERDKVNDIVDQVITIGKHVKGYHYIIANLGFTDGDLLKIQFGGANVSGFQIVDYDDSLVSKFIERWSTLEEKEYPGAHTATIKYTSALTYDAVQVMTEAFRNLRKQRIEISRRGNAGDCLANPAVPWGQGVEIERALKQVQVEGLSGNIKFDQNGKRINYTINIMELKTNGPRKIGYWSEVDKMVVTLTELPSGNDTSGLENKTVVVTTILESPYVMMKKNHEMLEGNERYEGYCVDLAAEIAKHCGFKYKLTIVGDGKYGARDADTKIWNGMVGELVYGKADIAIAPLTITLVREEVIDFSKPFMSLGISIMIKKPQKSKPGVFSFLDPLAYEIWMCIVFAYIGVSVVLFLVSRFSPYEWHTEEFEDGRETQSSESTNEFGIFNSLWFSLGAFMQQGADISPRSLSGRIVGGVWWFFTLIIISSYTANLAAFLTVERMVSPIESAEDLSKQTEIAYGTLDSGSTKEFFRRSKIAVFDKMWTYMRSAEPSVFVRTTAEGVARVRKSKGKYAYLLESTMNEYIEQRKPCDTMKVGGNLDSKGYGIATPKGSSLGTPVNLAVLKLSEQGVLDKLKNKWWYDKGECGAKDSGSKEKTSALSLSNVAGVFYILVGGLGLAMLVALIEFCYKSRAEAKRMKVAKNPQNINPSSSQNSQNFATYKEGYNVYGIESVKIGLVPR
notes: signal peptide in the construct; AMPA receptor subunit GluA2 (GluRB, GluR2), flip form (GluA2i), rat, NP_058957, full length including the native signal peptide; extra residues left from the thrombin cleavage site (GLVPRG) at the distal C-terminus after digestion; Tetrameric membrane protein in C12M detergent with lipid; Purified under reducing conditions; also called WT; parent; source: HEK293 …
Regarding B3, in series [5], the “stoichiometry N” value amounted to 4.

B4: GluA2_(C589A-Thr) A621C (receptor, rat)
chain: VSSNSIQIGGLFPRGADQEYSAFRVGMVQFSTSEFRLTPHIDNLEVANSFAVTNAFCSQFSRGVYAIFGFYDKKSVNTITSFCGTLHVSFITPSFPTDGTHPFVIQMRPDLKGALLSLIEYYQWDKFAYLYDSDRGLSTLQAVLDSAAEKKWQVTAINVGNINNDKKDETYRSLFQDLELKKERRVILDCERDKVNDIVDQVITIGKHVKGYHYIIANLGFTDGDLLKIQFGGANVSGFQIVDYDDSLVSKFIERWSTLEEKEYPGAHTATIKYTSALTYDAVQVMTEAFRNLRKQRIEISRRGNAGDCLANPAVPWGQGVEIERALKQVQVEGLSGNIKFDQNGKRINYTINIMELKTNGPRKIGYWSEVDKMVVTLTELPSGNDTSGLENKTVVVTTILESPYVMMKKNHEMLEGNERYEGYCVDLAAEIAKHCGFKYKLTIVGDGKYGARDADTKIWNGMVGELVYGKADIAIAPLTITLVREEVIDFSKPFMSLGISIMIKKPQKSKPGVFSFLDPLAYEIWMCIVFAYIGVSVVLFLVSRFSPYEWHTEEFEDGRETQSSESTNEFGIFNSLWFSLGAFMQQGADISPRSLSGRIVGGVWWFFTLIIISSYTANLCAFLTVERMVSPIESAEDLSKQTEIAYGTLDSGSTKEFFRRSKIAVFDKMWTYMRSAEPSVFVRTTAEGVARVRKSKGKYAYLLESTMNEYIEQRKPCDTMKVGGNLDSKGYGIATPKGSSLGTPVNLAVLKLSEQGVLDKLKNKWWYDKGECGAKDSGSKEKTSALSLSNVAGVFYILVGGLGLAMLVALIEFCYKSRAEAKRMKVAKNPQNINPSSSQNSQNFATYKEGYNVYGIESVKIGLVPR
notes: signal peptide in the construct; AMPA receptor subunit GluA2, flip form (GluA2i), rat, NP_058957, full length including the native signal peptide; extra residues left from the thrombin cleavage site at the distal C-terminus after digestion; source: HEK293 GnTI- cells, baculovirus-transduced (BacMam), purified (streptactin resin, thrombin digestion, SEC Superose 6); not shown: eGFP, C-terminal, …
As to B4, the “stoichiometry N” value in series [5] came to 4.

B5: GluA2_(C589A-Thr) I664C (receptor, rat)
chain: VSSNSIQIGGLFPRGADQEYSAFRVGMVQFSTSEFRLTPHIDNLEVANSFAVTNAFCSQFSRGVYAIFGFYDKKSVNTITSFCGTLHVSFITPSFPTDGTHPFVIQMRPDLKGALLSLIEYYQWDKFAYLYDSDRGLSTLQAVLDSAAEKKWQVTAINVGNINNDKKDETYRSLFQDLELKKERRVILDCERDKVNDIVDQVITIGKHVKGYHYIIANLGFTDGDLLKIQFGGANVSGFQIVDYDDSLVSKFIERWSTLEEKEYPGAHTATIKYTSALTYDAVQVMTEAFRNLRKQRIEISRRGNAGDCLANPAVPWGQGVEIERALKQVQVEGLSGNIKFDQNGKRINYTINIMELKTNGPRKIGYWSEVDKMVVTLTELPSGNDTSGLENKTVVVTTILESPYVMMKKNHEMLEGNERYEGYCVDLAAEIAKHCGFKYKLTIVGDGKYGARDADTKIWNGMVGELVYGKADIAIAPLTITLVREEVIDFSKPFMSLGISIMIKKPQKSKPGVFSFLDPLAYEIWMCIVFAYIGVSVVLFLVSRFSPYEWHTEEFEDGRETQSSESTNEFGIFNSLWFSLGAFMQQGADISPRSLSGRIVGGVWWFFTLIIISSYTANLAAFLTVERMVSPIESAEDLSKQTEIAYGTLDSGSTKEFFRRSKCAVFDKMWTYMRSAEPSVFVRTTAEGVARVRKSKGKYAYLLESTMNEYIEQRKPCDTMKVGGNLDSKGYGIATPKGSSLGTPVNLAVLKLSEQGVLDKLKNKWWYDKGECGAKDSGSKEKTSALSLSNVAGVFYILVGGLGLAMLVALIEFCYKSRAEAKRMKVAKNPQNINPSSSQNSQNFATYKEGYNVYGIESVKIGLVPR
notes: as for B1
Take B5: the “stoichiometry N” value in series [5] amounted to 4.

B6: GluA2_(C589A-Thr) R628C (receptor, rat)
chain: VSSNSIQIGGLFPRGADQEYSAFRVGMVQFSTSEFRLTPHIDNLEVANSFAVTNAFCSQFSRGVYAIFGFYDKKSVNTITSFCGTLHVSFITPSFPTDGTHPFVIQMRPDLKGALLSLIEYYQWDKFAYLYDSDRGLSTLQAVLDSAAEKKWQVTAINVGNINNDKKDETYRSLFQDLELKKERRVILDCERDKVNDIVDQVITIGKHVKGYHYIIANLGFTDGDLLKIQFGGANVSGFQIVDYDDSLVSKFIERWSTLEEKEYPGAHTATIKYTSALTYDAVQVMTEAFRNLRKQRIEISRRGNAGDCLANPAVPWGQGVEIERALKQVQVEGLSGNIKFDQNGKRINYTINIMELKTNGPRKIGYWSEVDKMVVTLTELPSGNDTSGLENKTVVVTTILESPYVMMKKNHEMLEGNERYEGYCVDLAAEIAKHCGFKYKLTIVGDGKYGARDADTKIWNGMVGELVYGKADIAIAPLTITLVREEVIDFSKPFMSLGISIMIKKPQKSKPGVFSFLDPLAYEIWMCIVFAYIGVSVVLFLVSRFSPYEWHTEEFEDGRETQSSESTNEFGIFNSLWFSLGAFMQQGADISPRSLSGRIVGGVWWFFTLIIISSYTANLAAFLTVECMVSPIESAEDLSKQTEIAYGTLDSGSTKEFFRRSKIAVFDKMWTYMRSAEPSVFVRTTAEGVARVRKSKGKYAYLLESTMNEYIEQRKPCDTMKVGGNLDSKGYGIATPKGSSLGTPVNLAVLKLSEQGVLDKLKNKWWYDKGECGAKDSGSKEKTSALSLSNVAGVFYILVGGLGLAMLVALIEFCYKSRAEAKRMKVAKNPQNINPSSSQNSQNFATYKEGYNVYGIESVKIGLVPR
notes: signal peptide in the construct; AMPA receptor subunit GluA2, flip form (GluA2i), rat, NP_058957, full length including the native signal peptide; extra residues left from the thrombin cleavage site at the distal C-terminus after digestion; Single cysteine substitution in m1, LBD-TMD linker region (M3-S2 linker); source: HEK293 GnTI- cells, baculovirus-transduced (BacMam), purified (streptactin …)
With B6, in series [5], the “stoichiometry N” value was found to be 4.
